Each block holds one binder with its values, some of them ahead of it.
Assays:
[1] = biological target: T1, recombinant DLL3 protein (purchased from ACRO, DL3-H5255) (human, UniProt Q9NYJ7 27-479); assay: ELISA, plate-coated human DLL3 protein 1 µg/ml
T1 construct: Bought; also called human DLL3 protein; hDLL3
T1 sequence (looked up): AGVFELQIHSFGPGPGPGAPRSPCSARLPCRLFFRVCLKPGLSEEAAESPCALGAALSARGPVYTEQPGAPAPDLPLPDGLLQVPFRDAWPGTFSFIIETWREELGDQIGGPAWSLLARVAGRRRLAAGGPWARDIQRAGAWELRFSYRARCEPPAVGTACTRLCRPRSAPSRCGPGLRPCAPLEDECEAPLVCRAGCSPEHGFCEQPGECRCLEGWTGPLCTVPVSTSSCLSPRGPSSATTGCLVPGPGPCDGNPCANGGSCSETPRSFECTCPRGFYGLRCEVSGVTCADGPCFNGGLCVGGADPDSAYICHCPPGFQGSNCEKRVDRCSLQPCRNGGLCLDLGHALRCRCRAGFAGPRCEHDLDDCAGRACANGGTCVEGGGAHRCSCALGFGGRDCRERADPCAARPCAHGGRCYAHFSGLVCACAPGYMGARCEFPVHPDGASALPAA
Source text: Six 6-week-old SPF grade female Balb/C mice (purchased from Shanghai Jihui Laboratory Animal Care Co., Ltd.) were selected and randomly divided into two groups, A and B. They were immunized with recombinant DLL3 protein (purchased from ACRO, DL3-H5255) at two-week intervals. Freund's complete adjuvant was used for the first immunization and Freund's incomplete adjuvant was used for subsequent immunizations. On days 35 and 49, blood samples were collected from the mice via orbital bleeding, and the immune serum titers of the mice were detected using conventional methods of ELISA and Flow Cytometry (FACS). ELISA detection method: DLL3 protein was diluted with PBS to a concentration of 1 μg/ml. 100 μl/well was added to a 96-well ELISA plate and incubated overnight at 4° C. The next day, the supernatant was discarded, and each well was blocked with 200 μl of 2% milk in PBS for 2 hours. After discarding the blocking solution, the wells were washed 3 times with 200 μl of PBST (0.1% Tween20). The serum to be detected was pre-diluted 100 times as the starting concentration, followed by a 3-fold gradient dilution across 11 concentrations, with 100 μl added to each well of the ELISA plate. After incubating at room temperature for 1 hour, the supernatant was discarded and the wells were washed 5 times with 200 μl of PBST (0.1% Tween20). Then, 100 μl of HRP-labeled goat anti-mouse secondary antibody (Jackson, 1:10000) was added and incubated at room temperature for 1 hour. After discarding the supernatant, the wells were washed 7 times with 200 μl of PBST (0.1% Tween20). 100 μl of TMB chromogen solution was added to each well for 10 minutes. The reaction was terminated with 2M HCl, and absorbance value at 450 nm was read with a Microplate Reader (purchased from Biotek, Elx808).
For the hybridoma clones with good binding and internalization activities identified in Example 5, the heavy chain variable region sequences were synthesized and cloned into the pFUSEss-CHIg-hG1 vector (purchased from InvivoGen, catalog number pfusess-hchgl) comprising the amino acid sequence of the human antibody IgG1 heavy chain constant region by homologous recombination.

[2] = biological target: T2, human DLL3, His tag (acrobiosystems, DL3-H52H4) (human, UniProt Q9NYJ7 27-492); assay: BLI (Octet 96e), antibody on sensor, DLL3-His 100-3.13 nM in solution
T2 construct: Bought; also called human DLL3 protein; free DLL3; not shown: His tag
T2 sequence (looked up): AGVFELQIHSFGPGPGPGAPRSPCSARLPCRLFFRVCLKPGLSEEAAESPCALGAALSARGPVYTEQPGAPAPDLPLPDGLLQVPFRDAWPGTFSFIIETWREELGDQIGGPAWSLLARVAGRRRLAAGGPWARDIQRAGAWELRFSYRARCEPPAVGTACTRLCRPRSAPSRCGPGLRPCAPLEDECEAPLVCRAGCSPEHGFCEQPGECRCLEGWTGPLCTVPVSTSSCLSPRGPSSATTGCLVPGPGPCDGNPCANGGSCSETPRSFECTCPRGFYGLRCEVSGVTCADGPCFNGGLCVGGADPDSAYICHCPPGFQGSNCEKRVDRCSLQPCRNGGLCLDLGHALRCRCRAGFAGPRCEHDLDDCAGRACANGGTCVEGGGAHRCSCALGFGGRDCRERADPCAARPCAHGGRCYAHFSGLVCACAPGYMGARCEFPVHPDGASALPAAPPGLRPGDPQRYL
Description: To assess the affinity of antibodies for human DLL3 protein, this study employed the BLI method to detect the binding kinetics curves of immobilized antibodies with free DLL3. The method was conducted according to the instrument's user manual (supplier: Fortebio, equipment model: Octet 96e). Briefly, AMC sensors were equilibrated for 60 s with Loading Buffer/Sample dilution buffer (1×PBS, pH7.4, with 0.1% BSA and 0.02% Tween-20) to obtain Baseline 1. The antibodies to be detected were diluted with Loading Buffer to a concentration of 10 ug/ml and bound to the equilibrated sensors, after which the sensors were re-equilibrated with Loading Buffer to obtain Baseline 2. The antibody-loaded sensors were then placed in human DLL3, His tag (supplier: acrobiosystems, catalog number: DL3-H52H4) diluted with Sample Dilution Buffer to concentrations ranging from 100 to 3.13 nM for 90 s to obtain the antibody-protein binding curve. Then, the sensors combined with antigen were placed in the Sample Dilution Buffer again and dissociated for 180 s, and the dissociation curve was obtained. The k-on and k-off values of the antibody-protein binding were calculated based on the binding and dissociation curves, and the KD values were calculated, with the results shown in Table 4.

[3] = biological target: T3, human DLL4 (purchased from Acro, DL4-H5227) (human, UniProt Q9NR61 27-524); assay: ELISA, plate-coated protein 1 µg/ml
T3 construct: Bought; also called hDLL4
T3 sequence (Q9NR61 27-524 limits assumed): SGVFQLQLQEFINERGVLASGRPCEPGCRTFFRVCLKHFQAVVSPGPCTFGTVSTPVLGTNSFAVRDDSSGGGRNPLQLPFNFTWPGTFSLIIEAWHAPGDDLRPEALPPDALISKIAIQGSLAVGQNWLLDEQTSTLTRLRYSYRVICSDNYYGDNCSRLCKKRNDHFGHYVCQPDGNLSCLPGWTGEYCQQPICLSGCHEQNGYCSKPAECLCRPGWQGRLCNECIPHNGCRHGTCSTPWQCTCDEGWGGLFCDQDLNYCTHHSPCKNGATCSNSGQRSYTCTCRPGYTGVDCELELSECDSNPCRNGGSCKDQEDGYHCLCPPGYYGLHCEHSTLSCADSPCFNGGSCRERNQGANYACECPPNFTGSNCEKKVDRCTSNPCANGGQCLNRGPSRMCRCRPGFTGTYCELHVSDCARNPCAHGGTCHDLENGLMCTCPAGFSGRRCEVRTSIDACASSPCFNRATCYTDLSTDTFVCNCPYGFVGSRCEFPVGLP
Description: (§1) The chimeric antibodies obtained in Example 6 were evaluated for their binding abilities to human DLL1 (purchased from Acro, DL1-H52H8) and DLL4 (purchased from Acro, DL4-H5227) proteins using the ELISA method. The ELISA detection method involved diluting DLL1 and DLL4 proteins with PBS to a final concentration of 1 μg/ml and coating them onto 384-well ELISA plates (purchased from Corning, 3700) at 4° C. overnight. The next day, the supernatant in the plate wells was discarded, and the wells were blocked with 80 μl of 3% milk (dissolved in PBS) for 2 hours, followed by washing three times with 80 μl of PBST (0.1% Tween20). […] After washing with 80 μl of PBST (0.1% Tween20) for five times, 25 μl of HRP-labeled goat anti-human secondary antibody (Jackson, 1:10000) was added to each well and incubated at room temperature for 1 hour, discard the supernatant, and the wells were then washed seven times with 80 μl of PBST (0.1% Tween20). After adding 25 μl of TMB chromogen solution for 10 minutes, the reaction was terminated with 2M HCl, and the absorbance value at 450 nm was measured with a Microplate reader (purchased from Biotek, Elx808). […] To assess the cross-reactivity of the antibodies with mouse and monkey DLL3, mouse DLL3-expressing plasmid pCMV3-mDLL3 (purchased from Beijing Yiqiao, MG58052-UT) and monkey DLL3-expressing plasmid pCMV3-rheDLL3 (purchased from Beijing Yiqiao, CG90919-UT) were used to construct overexpressing cell lines. The construction of overexpressing cells was as described in Examples 2-3. The binding abilities of the chimeric antibodies to these cells were determined by flow cytometry to assess the cross-reactivity of the antibodies with different species.

[4] = biological target: T3, human DLL4 (purchased from Acro, …); assay: ELISA on plate-coated human DLL4 protein (1 µg/ml), HRP goat anti-human secondary, OD 450 nm [right panel]
Description: as §1

[5] = biological target: T4, human DLL1 (purchased from Acro, DL1-H52H8) (human, UniProt O00548 18-540); assay: ELISA on plate-coated human DLL1 protein (1 µg/ml), HRP goat anti-human secondary, OD 450 nm [left panel]
T4 construct: Bought; also called hDLL1
T4 sequence (looked up): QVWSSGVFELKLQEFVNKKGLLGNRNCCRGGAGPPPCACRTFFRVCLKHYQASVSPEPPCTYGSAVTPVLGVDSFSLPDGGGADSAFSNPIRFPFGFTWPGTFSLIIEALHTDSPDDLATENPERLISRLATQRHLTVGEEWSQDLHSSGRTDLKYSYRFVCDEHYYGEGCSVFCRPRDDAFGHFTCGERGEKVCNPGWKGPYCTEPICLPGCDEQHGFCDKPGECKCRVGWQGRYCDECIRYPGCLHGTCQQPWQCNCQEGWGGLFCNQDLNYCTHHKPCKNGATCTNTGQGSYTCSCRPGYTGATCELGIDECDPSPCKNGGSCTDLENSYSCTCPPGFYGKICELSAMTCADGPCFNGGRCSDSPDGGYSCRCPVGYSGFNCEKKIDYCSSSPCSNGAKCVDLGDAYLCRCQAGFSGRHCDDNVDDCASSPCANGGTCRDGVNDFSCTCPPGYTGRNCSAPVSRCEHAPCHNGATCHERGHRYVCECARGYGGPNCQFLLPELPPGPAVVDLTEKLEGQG
Description: as §1

EC50 [1]: 0.0115 µg/mL
Kd [2]: 0.104 nM
koff [2]: 0.000111 s⁻¹
kon [2]: 1.07e+06 M⁻¹ s⁻¹
binding result [3]: no binding (tested: up to 20 µg/ml)
B1: ch4H7 (antibody, human IgG1, kappa, V domains shown)
VH: EVQLQQSGAELVRPGALVKLSCKASGFNFKDYYIHWVKQRPELGLEWIGWIDPENGNAIYDPKFQDKASITADTSSNTAYLHLSSLTSEGTAVYYCASEDAYYPFAYWGQGTLVTVSA
VL: DIVMSQSPSSLAVSVGEKVTMRCKSSQSLLYSSNQKNYLAWYQQKPGQSPKLLIYWASTRESGVPDRFTGSGSGTDFTLTISSVKAEDLAVYFCQQYYSYRTFGGGTKLEIKR
notes: Chimeric: murine variable regions on human IgG1 heavy and kappa light constant regions; also called chimeric antibody 4H7

EC50 [1]: 0.0159 µg/mL
Kd [2]: 0.0991 nM
koff [2]: 0.000168 s⁻¹
kon [2]: 1.69e+06 M⁻¹ s⁻¹
binding result [4]: no binding (tested: 20 µg/ml)
B2: ch36H10 (antibody, human IgG1, kappa, V domains shown)
VH: EVQFQQSGPELVKPGASVKISCKASGYTFTDYNIHWVRQSQGKSLEWIGLIYPFNGGIVYNQKFKSKATLTVDNSSTSAYMELRSLSSEDSAVYFCARLNWEGYWGQGSTLIVSS
VL: DIKMTQSPSSIYAFLGERVTITCKASQDINSYLSWFQQKPGKSPKTLIYRANRLVGGVPSRFSGSGSGQDYSLTISSLEYEDVGDYYCLQYAEFPYTFGGGTKLEIKR
notes: Chimeric: murine variable regions on human IgG1 heavy and kappa light constant regions; also called chimeric antibody 36H10

EC50 [1]: 0.0233 µg/mL
binding result [5]: no binding (tested: 20 µg/ml)
B3: FDA031 (antibody, human IgG1, kappa, V domains shown)
VH: QVQLVQSGAEVKKPGASVKVSCKASGYTFTRYWIHWIRQAPGQGLEWMGYINPTTVYTEFNQNFKDRVTMTRDTSTSTVYMELSSLRSEDTAVYYCARGGSNFFDYWGQGTTVTVSS
VL: AIQLTQSPSSLSASVGDRVTITCRASENIYYNLAWYQQKPGKAPKLLIYTANSLEDGVPSRFSGSGSGTDFTLTISSLQPEDFATYFCKQAYDVPPTFGGGTKLEIKR
notes: also called anti-DLL3 antibody FDA031
